Patent US20100055117A1 (published 2010)

Experiments:
[1] = target: T1, FRL (murine FMNL1 homologue) peptide on HLA-A*02:01 (human); experiment: killing
T1 peptide: RLPERMNTL

[2] = target: T2, FMNL1/KW13 peptide on HLA-A*02:01 (human); experiment: multimer staining
T2 peptide: RLPERMTTL

- binding result [2]: recognises
B1: TCR of T cell clone SC22 (Vα14J41; Vβ14J2.5) (TCR)
alpha TRAV38-2/DV8*01; Vα14 TRAJ41*01; J41 CDR3: AYENSGYALNF
beta TRBV27*01; Vβ14 TRBJ2-5*01; Jβ2.5 CDR3: ASSFLGETQYF
- binding result [1]: recognises
